According to patent US20230272082A1 (SENSEI BIOTHERAPEUTICS, published 2023):
Residue numbers refer to the chain shown, from its start. One block for each binder: values may come before it.

Tests used:
[1] = biological target: T1, human VISTA (human, UniProt Q9H7M9 33-194, limits assumed); assay: flow cytometry on CHO-VISTA cells, pH 6.0, detection Anti-Fab 647 (legend: Fab on CHO-VISTA cells)
T1 construct: also called hVISTA

[2] = biological target: T1, human VISTA; assay: flow cytometry on CHO-VISTA cells, pH 7.4, detection Anti-Fab 647 (legend: Fab on CHO-VISTA cells)
[3] = biological target: T2, biotinylated hVISTA-Fc (human, biotinylated (site not stated)); assay: competition ELISA at pH 6.0; SNS-101 dilutions pre-incubated with biotinylated hVISTA-Fc, then added to wells coated with PSGL-1 (blocked partner)
T2 construct: also called Human VISTA-Fc
T2 chain: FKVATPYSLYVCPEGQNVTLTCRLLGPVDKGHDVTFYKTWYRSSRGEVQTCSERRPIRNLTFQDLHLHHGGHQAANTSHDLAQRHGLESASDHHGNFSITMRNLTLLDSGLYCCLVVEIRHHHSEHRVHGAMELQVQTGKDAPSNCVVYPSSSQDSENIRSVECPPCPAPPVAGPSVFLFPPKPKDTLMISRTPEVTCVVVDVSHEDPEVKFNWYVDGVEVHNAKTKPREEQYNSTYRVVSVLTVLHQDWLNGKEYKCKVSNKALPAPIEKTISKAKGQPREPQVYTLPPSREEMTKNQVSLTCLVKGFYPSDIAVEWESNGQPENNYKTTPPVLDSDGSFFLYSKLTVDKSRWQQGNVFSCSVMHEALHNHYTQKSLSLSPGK

[4] = biological target: T2, biotinylated hVISTA-Fc; assay: competition ELISA at pH 6.0; SNS-101 dilutions pre-incubated with biotinylated hVISTA-Fc, then added to wells coated with Syndecan-2 (blocked partner)
[5] = biological target: T2, biotinylated hVISTA-Fc; assay: competition ELISA at pH 6.0; SNS-101 dilutions pre-incubated with biotinylated hVISTA-Fc, then added to wells coated with VSIG-8 (blocked partner)
[6] = biological target: T2, biotinylated hVISTA-Fc; assay: competition ELISA at pH 6.0; SNS-101 dilutions pre-incubated with biotinylated hVISTA-Fc, then added to wells coated with VSIG-3 (blocked partner)
[7] = biological target: T2, biotinylated hVISTA-Fc; assay: competition ELISA at pH 6.0; SNS-101 dilutions pre-incubated with biotinylated hVISTA-Fc, then added to wells coated with LRIG-1 (blocked partner)

FOB (fold over background) [1]: 29.4 | FOB (fold over background) [2]: 34.8
B1: antibody 55873 (mab#2) (antibody, V domains shown)
VH: EVQLVESGGGLVQPGGSLRLSCAASGFTFSSYSMNWVRQAPGKGLEWVSYISSSSSTIYYADSVKGRFTISRDNAKNSLYLQMNSLRAEDTAVYYCAREAGGVVGRVDFQHWGQGTLVTVSS
VL: DIQMTQSPSSLSASVGDRVTITCQASQDISNYLNWYQQKPGKAPKLLIYDASNLETGVPSRFSGSGSGTDFTFTISSLQPEDIATYYCQQADFLPPWTFGGGTKVEIK
notes: Fully human parental antibody; also called Anti-VISTA mAb #2

IC50 [3]: 7 nM | IC50 [4]: 6 nM | IC50 [5]: 6 nM | IC50 [6]: 6 nM | IC50 [7]: 6 nM
B2: SNS-101 (antibody, human IgG1, V domains shown)
VH: B1 VH with S30D, S31D, S54D, S55A, S56D, V104L
VL: B1 VL with M4L, E55G, L94V
notes: Described as a fully human IgG1; also called antibody 67375
